# Data from PMC6422423, “Constitutively active BRS3 is a genuinely orphan GPCR in placental mammals” (PLoS Biology, 2019).
# Changes are numbered by the printed parent chain. In names and notes the source's numbering stands.
# B1: mouse (protein, UniProt O54798 1-399, looked up)
# Bombesin receptor subtype-3: MSQRQSQSPNQTLISITNDTETSSSVVSNDTTHKGWTGDNSPGIEALCAIYITYAGIISVGILGNAILIKVFFKTKSMQTVPNIFITSLAFGDLLLLLTCVPVDATHYLAEGWLFGKVGCKVLSFIRLTSVGVSVFTLTILSADRYKAVVKPLERQPPNAILKTCAKAGGIWIVSMIFALPEAIFSNVYTFQDPNRNVTFESCNSYPISERLLQEIHSLLCFLVFYIIPLSIISVYYSLIARTLYKSTLNIPTEEQSHARKQIESRKRIAKTVLVLVALFALCWLPNHLLYLYHSFTYESYANHSDVPFVIIIFSRVLAFSNSCVNPFALYWLSKTFQQHFKAQLCCLKAEQPEPPLGDIPLNNLTVMGRVPATGSAHVSEISVTLFSGSSAKKGEDKV
# B2: human (protein, UniProt P32247 1-399, looked up)
# Bombesin receptor subtype-3: MAQRQPHSPNQTLISITNDTESSSSVVSNDNTNKGWSGDNSPGIEALCAIYITYAVIISVGILGNAILIKVFFKTKSMQTVPNIFITSLAFGDLLLLLTCVPVDATHYLAEGWLFGRIGCKVLSFIRLTSVGVSVFTLTILSADRYKAVVKPLERQPSNAILKTCVKAGCVWIVSMIFALPEAIFSNVYTFRDPNKNMTFESCTSYPVSKKLLQEIHSLLCFLVFYIIPLSIISVYYSLIARTLYKSTLNIPTEEQSHARKQIESRKRIARTVLVLVALFALCWLPNHLLYLYHSFTSQTYVDPSAMHFIFTIFSRVLAFSNSCVNPFALYWLSKSFQKHFKAQLFCCKAERPEPPVADTSLTTLAVMGTVPGTGSIQMSEISVTSFTGCSVKQAEDRF
# B3: mBRS3 (protein)
# chain: B1 Bombesin receptor subtype-3
# modifications: left off: V5 (from the vector pcDNA3.1-V5-His), end not stated, state not stated | His tag (from the vector pcDNA3.1-V5-His), end not stated, state not stated
# B4: mBRS3-R268A (protein, UniProt O54798 1-399, looked up, variant R268A)
# Bombesin receptor subtype-3: B1 Bombesin receptor subtype-3 with R268A
# B5: mBRS3-A270I (protein, UniProt O54798 1-399, looked up, variant A270I)
# Bombesin receptor subtype-3: B1 Bombesin receptor subtype-3 with A270I
# B6: mBRS3-F337A (protein, UniProt O54798 1-399, looked up, variant F337A)
# Bombesin receptor subtype-3: B1 Bombesin receptor subtype-3 with F337A
# B7: mBRS3-Q339A (protein, UniProt O54798 1-399, looked up, variant Q339A)
# Bombesin receptor subtype-3: B1 Bombesin receptor subtype-3 with Q339A
# B8: mBRS3-Q156A (protein, UniProt O54798 1-399, looked up, variant Q156A)
# Bombesin receptor subtype-3: B1 Bombesin receptor subtype-3 with Q156A
# B9: mBRS3-P158A (protein, UniProt O54798 1-399, looked up, variant P158A)
# Bombesin receptor subtype-3: B1 Bombesin receptor subtype-3 with P158A
# B10: mBRS3-R370A (protein, UniProt O54798 1-399, looked up, variant R370A)
# Bombesin receptor subtype-3: B1 Bombesin receptor subtype-3 with R370A
# B11: mBRS3-P372A (protein, UniProt O54798 1-399, looked up, variant P372A)
# Bombesin receptor subtype-3: B1 Bombesin receptor subtype-3 with P372A
# B12: hBRS3-WT (protein, UniProt P32247 1-399, looked up)
# Bombesin receptor subtype-3: B2 Bombesin receptor subtype-3
# B13: hBRS3 (protein)
# chain: B2 Bombesin receptor subtype-3
# modifications: left off: V5 (from the vector pcDNA3.1-V5-His), end not stated, state not stated | His tag (from the vector pcDNA3.1-V5-His), end not stated, state not stated
# How the values were obtained:
# mouse BRS3 (mBRS3) = assay: Luciferase reporter, constitutive activity (WT, mutants, truncated; with/without inhibitor); format: cell-based; parameters: key to constitutive luciferase activity: fold over pcDNA-transfected blank control (blank = 1); conditions: for luciferase, CRE / luciferase, NFAT / luciferase, SRE / luciferase, SRF: Blank = 1; for CRE luciferase reporter activity relative to Blank (Blank = 1) / NFAT luciferase reporter activity relative to Blank (Blank = 1) / SRF luciferase reporter activity relative to Blank (Blank = 1): constitutive, full-length mBRS3 and truncated N-mBRS3; for constitutive luciferase activity: no ligand
# Experimental: (§1) To detect constitutive activity of BRS3, HEK293 cells were seeded in 24-well plates and cotransfected with the CRE/NFAT-RE/SRF-RE/SRE luciferase reporter plasmids (50 ng), the BRS3 from different species, or BRS3 mutants with different doses (10 ng/50 ng/150 ng); after 24 h, cells were further incubated in serum-free media for another 12 h before luciferase assay. As for peptide supplementation treatment, HEK293 cells were cotransfected with the CRE/NFAT-RE/SRF-RE/SRE luciferase reporter plasmids (50 ng) and various genes (300 ng) of the bombesin receptor family. […] Luciferase activities were determined using luciferase assay kits (Beyotime, Shanghai, China) and normalized to β-galactosidase activity. All experiments were performed at least three times in triplicates. HEK293 cells transfected with pcDNA were used as a blank control in all luciferase experiments, and the fold was calculated compared to blank control.
# human BRS3 (hBRS3) = assay: as above; format: cell-based; conditions: for luciferase, CRE / luciferase, NFAT / luciferase, SRE / luciferase, SRF: Blank = 1; for CRE luciferase reporter activity relative to Blank (Blank = 1) / NFAT luciferase reporter activity relative to Blank (Blank = 1) / SRF luciferase reporter activity relative to Blank (Blank = 1): constitutive
# Experimental: as §1
# [1] = hBRS3 WT and mutant 3, replicate 1
# [2] = hBRS3 WT and mutant 3, replicate 2
# [3] = hBRS3 WT and mutant 3, third line, unlabelled, equals mean of the two replicates
# [4] = full-length hBRS3 and truncated N-hBRS3, replicate 1
# [5] = full-length hBRS3 and truncated N-hBRS3, replicate 2
# [6] = full-length hBRS3 and truncated N-hBRS3, third line, unlabelled, equals mean of the two replicates
molecule,measurement,setting,value
B1,"luciferase, CRE",mouse BRS3 (mBRS3); value 1 of 3,19.4537
same,"luciferase, NFAT",mouse BRS3 (mBRS3); value 1 of 3,19.0254
same,"luciferase, SRE",mouse BRS3 (mBRS3); value 1 of 3,1.5624
same,"luciferase, SRF",mouse BRS3 (mBRS3); value 1 of 3,20.3125
same,"luciferase, CRE",mouse BRS3 (mBRS3); value 2 of 3,18.5759
same,"luciferase, NFAT",mouse BRS3 (mBRS3); value 2 of 3,18.2536
same,"luciferase, SRE",mouse BRS3 (mBRS3); value 2 of 3,1.4021
same,"luciferase, SRF",mouse BRS3 (mBRS3); value 2 of 3,21.0453
same,"luciferase, NFAT",mouse BRS3 (mBRS3); value 3 of 3,18.6395
same,"luciferase, SRE",mouse BRS3 (mBRS3); value 3 of 3,1.4823
same,"luciferase, SRF",mouse BRS3 (mBRS3); value 3 of 3,20.6789
B2,"luciferase, CRE",human BRS3 (hBRS3); value 1 of 3,4.2545
same,"luciferase, NFAT",human BRS3 (hBRS3); value 1 of 3,6.3808
same,"luciferase, SRE",human BRS3 (hBRS3); value 1 of 3,1.2780
same,"luciferase, SRF",human BRS3 (hBRS3); value 1 of 3,4.0202
same,"luciferase, CRE",human BRS3 (hBRS3); value 2 of 3,3.9246
same,"luciferase, NFAT",human BRS3 (hBRS3); value 2 of 3,6.2351
same,"luciferase, SRE",human BRS3 (hBRS3); value 2 of 3,1.0242
same,"luciferase, SRF",human BRS3 (hBRS3); value 2 of 3,3.9201
same,"luciferase, CRE",human BRS3 (hBRS3); value 3 of 3,4.0896
same,"luciferase, NFAT",human BRS3 (hBRS3); value 3 of 3,6.5264
same,"luciferase, SRE",human BRS3 (hBRS3); value 3 of 3,1.5319
same,"luciferase, SRF",human BRS3 (hBRS3); value 3 of 3,4.1204
B3,CRE luciferase reporter activity relative to Blank (Blank = 1),"mouse BRS3 (mBRS3); CRE, replicate 1",16.331
same,CRE luciferase reporter activity relative to Blank (Blank = 1),"mouse BRS3 (mBRS3); CRE, replicate 2",17.4509
same,CRE luciferase reporter activity relative to Blank (Blank = 1),"mouse BRS3 (mBRS3); CRE, third line, unlabelled, equals mean of the two replicates",16.8909
same,constitutive luciferase activity,"mouse BRS3 (mBRS3); CRE, mean",17.9436
same,constitutive luciferase activity,"mouse BRS3 (mBRS3); CRE, replicate 1",17.8927
same,constitutive luciferase activity,"mouse BRS3 (mBRS3); CRE, replicate 2",17.9945
same,NFAT luciferase reporter activity relative to Blank (Blank = 1),mouse BRS3 (mBRS3); replicate 1,16.9181
same,NFAT luciferase reporter activity relative to Blank (Blank = 1),mouse BRS3 (mBRS3); replicate 2,16.5656
same,NFAT luciferase reporter activity relative to Blank (Blank = 1),"mouse BRS3 (mBRS3); third line, unlabelled, equals mean of the two replicates",16.7418
same,SRF luciferase reporter activity relative to Blank (Blank = 1),"mouse BRS3 (mBRS3); SRF, replicate 1",18.8375
same,SRF luciferase reporter activity relative to Blank (Blank = 1),"mouse BRS3 (mBRS3); SRF, replicate 2",17.9845
same,SRF luciferase reporter activity relative to Blank (Blank = 1),"mouse BRS3 (mBRS3); SRF, third line, unlabelled, equals mean of the two replicates",18.411
same,constitutive luciferase activity,"mouse BRS3 (mBRS3); SRF, mean",20.9426
same,constitutive luciferase activity,"mouse BRS3 (mBRS3); SRF, replicate 1",19.9659
same,constitutive luciferase activity,"mouse BRS3 (mBRS3); SRF, replicate 2",21.9194
B4,constitutive luciferase activity,"mouse BRS3 (mBRS3); SRF, mean",19.8563
same,constitutive luciferase activity,"mouse BRS3 (mBRS3); SRF, replicate 1",19.1647
same,constitutive luciferase activity,"mouse BRS3 (mBRS3); SRF, replicate 2",20.5479
B5,constitutive luciferase activity,"mouse BRS3 (mBRS3); SRF, mean",14.9649
same,constitutive luciferase activity,"mouse BRS3 (mBRS3); SRF, replicate 1",15.7177
same,constitutive luciferase activity,"mouse BRS3 (mBRS3); SRF, replicate 2",14.2121
B6,constitutive luciferase activity,"mouse BRS3 (mBRS3); SRF, mean",15.0321
same,constitutive luciferase activity,"mouse BRS3 (mBRS3); SRF, replicate 1",15.1183
same,constitutive luciferase activity,"mouse BRS3 (mBRS3); SRF, replicate 2",14.946
B7,constitutive luciferase activity,"mouse BRS3 (mBRS3); SRF, mean",15.5479
same,constitutive luciferase activity,"mouse BRS3 (mBRS3); SRF, replicate 1",16.2185
same,constitutive luciferase activity,"mouse BRS3 (mBRS3); SRF, replicate 2",14.8773
B8,constitutive luciferase activity,"mouse BRS3 (mBRS3); CRE, mean",16.9342
same,constitutive luciferase activity,"mouse BRS3 (mBRS3); CRE, replicate 1",16.8106
same,constitutive luciferase activity,"mouse BRS3 (mBRS3); CRE, replicate 2",17.0578
B9,constitutive luciferase activity,"mouse BRS3 (mBRS3); CRE, mean",15.9368
same,constitutive luciferase activity,"mouse BRS3 (mBRS3); CRE, replicate 1",15.6335
same,constitutive luciferase activity,"mouse BRS3 (mBRS3); CRE, replicate 2",16.2401
B10,constitutive luciferase activity,"mouse BRS3 (mBRS3); CRE, mean",17.8056
same,constitutive luciferase activity,"mouse BRS3 (mBRS3); CRE, replicate 1",17.9268
same,constitutive luciferase activity,"mouse BRS3 (mBRS3); CRE, replicate 2",17.6843
B11,constitutive luciferase activity,"mouse BRS3 (mBRS3); CRE, mean",17.158
same,constitutive luciferase activity,"mouse BRS3 (mBRS3); CRE, replicate 1",17.4198
same,constitutive luciferase activity,"mouse BRS3 (mBRS3); CRE, replicate 2",16.8962
B12,CRE luciferase reporter activity relative to Blank (Blank = 1),human BRS3 (hBRS3); [1],4.2545
same,CRE luciferase reporter activity relative to Blank (Blank = 1),human BRS3 (hBRS3); [2],3.9246
same,CRE luciferase reporter activity relative to Blank (Blank = 1),human BRS3 (hBRS3); [3],4.0896
same,NFAT luciferase reporter activity relative to Blank (Blank = 1),human BRS3 (hBRS3); [1],6.5264
same,NFAT luciferase reporter activity relative to Blank (Blank = 1),human BRS3 (hBRS3); [2],6.2351
same,NFAT luciferase reporter activity relative to Blank (Blank = 1),human BRS3 (hBRS3); [3],6.3808
same,SRF luciferase reporter activity relative to Blank (Blank = 1),human BRS3 (hBRS3); [1],4.1204
same,SRF luciferase reporter activity relative to Blank (Blank = 1),human BRS3 (hBRS3); [2],3.9201
same,SRF luciferase reporter activity relative to Blank (Blank = 1),human BRS3 (hBRS3); [3],4.0202
B13,CRE luciferase reporter activity relative to Blank (Blank = 1),human BRS3 (hBRS3); [4],3.5016
same,CRE luciferase reporter activity relative to Blank (Blank = 1),human BRS3 (hBRS3); [5],4.7486
same,CRE luciferase reporter activity relative to Blank (Blank = 1),human BRS3 (hBRS3); [6],4.1251
same,NFAT luciferase reporter activity relative to Blank (Blank = 1),human BRS3 (hBRS3); [4],5.5943
same,NFAT luciferase reporter activity relative to Blank (Blank = 1),human BRS3 (hBRS3); [5],5.6987
same,NFAT luciferase reporter activity relative to Blank (Blank = 1),human BRS3 (hBRS3); [6],5.6465
same,SRF luciferase reporter activity relative to Blank (Blank = 1),human BRS3 (hBRS3); [4],3.202
same,SRF luciferase reporter activity relative to Blank (Blank = 1),human BRS3 (hBRS3); [5],3.9147
same,SRF luciferase reporter activity relative to Blank (Blank = 1),human BRS3 (hBRS3); [6],3.5584
